The text below walks through data of publication PMC10214526 (ACS Central Science, 2023).

Test [1] concerns the target T1, GABARAP(ΔG116)–NHNH methyl-fumarate 2 (UniProt O95166 1-115, C-terminal acyl hydrazide: -NHNH methyl fumarate (mimics the native glycine G116)).
T1 construct: GABARAP; GABARAP(ΔG116): the C-terminal glycine G116 is deleted, so the chain ends at residue 115; it may fit a chain without the first methionine (surmised); also called probe 2; GABARAP methyl fumarate; not shown: Mxe GyrA intein, C-terminal, cleaved
Nature of the test: cross-linking; competition: probe 2 (15 μM) incubated with ATG3 C1 in the presence of increasing amounts of LIR^ATG3 peptide; GABARAP–ATG3 C1 complex quantified by gel densitometry, normalized to the reaction without peptide; IC50 by nonlinear regression. Conditions: both partners purified.

Test [2] addresses T2, GABARAP (UniProt O95166 2-116).
T2 construct: GABARAP as used in fluorescence polarization and in the cocrystal
Put plainly: fluorescence polarisation; fluorescein-modified LIR^ATG3 peptide (linear, cyclized or truncated 103–111) with GABARAP or LC3A; triplicates; KD by nonlinear regression. Conditions: both partners purified. On the technique in general: In fluorescence polarisation assays a small probe gives low polarisation when free and higher when bound to something large.

Where no end group is shown, it is not given here.

T1 sequence (O95166 1-115, stated change not applied): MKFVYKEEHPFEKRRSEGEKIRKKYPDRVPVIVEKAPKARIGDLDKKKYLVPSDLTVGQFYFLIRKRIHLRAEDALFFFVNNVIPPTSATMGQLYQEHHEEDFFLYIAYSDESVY
T2 sequence (O95166 2-116): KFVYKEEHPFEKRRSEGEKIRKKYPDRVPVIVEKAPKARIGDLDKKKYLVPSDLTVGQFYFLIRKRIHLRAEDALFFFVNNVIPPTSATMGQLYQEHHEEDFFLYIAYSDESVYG

B1: LIR (L94-H112) peptide 5 (peptide, UniProt Q9NT62 94-112, looked up)
peptide: LEAIIEEDDGDGGWVDTYH
notes: ATG3, human, LIR motif stretch L94-H112; also called linear LIR^ATG3 peptide 5; source: synthetic peptide (chemically prepared)
B1: the IC50 in test [1] turned out to be 104 µM.

B2: Cyclic peptide 6 (peptide)
chain: LEAIIEEDDGDGGWVDTYHC
modifications: thioether (positions not given here); not fully specified (bridges); also: cyclized by selective cysteine alkylation, partner of Cys not given here
B2: in test [1], the IC50 came out at 24 µM.

B3: fluorescein-modified truncated (103–111) LIR^ATG3 peptide (peptide, UniProt Q9NT62 103-111, looked up)
peptide: GDGGWVDTY
modifications: also: fluorescein, position not given here
notes: ATG3, human, amino acids G103-Y111 including the core LIR motif; also called truncated peptide
As to B3, the binding result in test [2] is given as “binds”.

As a reminder, the IC50 is the concentration that inhibits the measured activity by half.
